# Results published in paper PMC12203613.
# B1: AtHPPD (4-hydroxyphenylpyruvate dioxygenase) (Arabidopsis thaliana) (protein)
# chain: MGHQNAAVSENQNHDDGAASSPGFKLVGFSKFVRKNPKSDKFKVKRFHHIEFWCGDATNVARRFSWGLGMRFSAKSDLSTGNMVHASYLLTSGDLRFLFTAPYSPSLSAGEIKPTTTASIPSFDHGSCRSFFSSHGLGVRAVAIEVEDAESAFSISVANGAIPSSPPIVLNEAVTIAEVKLYGDVVLRYVSYKAEDTEKSEFLPGFERVEDASSFPLDYGIRRLDHAVGNVPELGPALTYVAGFTGFHQFAEFTADDVGTAESGLNSAVLASNDEMVLLPINEPVHGTKRKSQIQTYLEHNEGAGLQHLALMSEDIFRTLREMRKRSSIGGFDFMPSPPPTYYQNLKKRVGDVLSDDQIKECEELGILVDRDDQGTLLQIFTKPLGDRPTIFIEIIQRVGCMMKDEEGKAYQSGGCGGFGKGNFSELFKSIEEYEKTLEAKQLVG
# B2: OsHPPD (4-hydroxyphenylpyruvate dioxygenase) (Oryza sativa Japonica Group) (protein)
# chain: PPTPTPTATTGAVSAAAAAGENAGFRLVGHRRFVRANPRSDRFQALAFHHVELWCADAASAAGRFAFALGAPLAARSDLSTGNSAHASLLLRSASVAFLFTAPYGGDHGVGADAATTASIPSFSPGAARRFAADHGLAVHAVALRVADAADAFRASVAAGARPAFQPADLGGGFGLAEVELYGDVVLRFVSHPDGADAPFLPGFEGVSNPGAVDYGLRRFDHVVGNVPELAPVAAYISGFTGFHEFAEFTAEDVGTAESGLNSVVLANNAETVLLPLNEPVHGTKRRSQIQTYLDHHGGPGVQHIALASDDVLGTLREMRARSAMGGFEFLAPPPPNYYDGVRRRAGDVLSEEQINECQELGVLVDRDDQGVLLQIFTKPVGDRPTFFLEMIQRIGCMEKDESGQEYQKGGCGGFGKGNFSELFKSIEEYEKSLEAKQAPTVQGS
# Substrate: O=C(O)C(=O)Cc1ccc(O)cc1
# Test: purified protein
# Conditions: Fe(II)
row,Protein,Km [µM]
1,B1,44.04
2,B2,40.02
